The results in this text go back to the DeepSol protein solubility set.

The nature of the data set: soluble on expression in E. coli; label from the status in PepcDB or PDB records.
For the sequence “MSLKNNEKLIKWLFDTNAIRVCPKDKPFWYTSGTIGPYYINTHFLYGSEEKANKLLEFIDKEKENILKCPDRILEETMKNYQSDPIYRGLIDEMCDFIKNNIDVNEVDYISGGERRDWFFSPIIAKLLNKPHITIYKDLTTVVSSDGKTEELKELNGESVLHIADLITEASSYERAWIPAIKNNGGRIKWSVVVVDRKQGGAELLKSYDIKSFSMVDIDEGHHHHHH”, the “soluble on expression in E. coli” value was “soluble”.

In the case of “MRKLAAFLGLVGLLSLGLAQSAQEILDRVEKNLSTPWQATVQGRIQGPGGEEELLARVYALPQARLFRVEFLKPGSLEGNFTVITEKEVWNYLYLTNQLVISPREKAKIQGLGFAPQGLGDLKALSEQVDLRLEGEVRLPEGMAWKLVGRSKENQGFAAMELYILKADPRPLRFVFLDEKGKVLADLKVVEFKRTNLTEAQLKRYPKDAQVVRR”, the “soluble on expression in E. coli” value is reported as “soluble”.

With “MGSDKIHHHHHHMKEAKKIDISKLKTGFLGKFPSHQLSRILSSEPDRLTEPEFLAKALKENKYVPYYYINVRENPTSIKIYRYVTKISNRDNDIDEVKNKFDSFLYGKSIVILDEVDFLQDYDVLYHITRHTKANLILLTQKVYWYMDTNDESVKSSLQPDHIVFYEYSSDEIREILKMRADEGLNKYDPDSLGLLSAMLVRNYRSDARIGIKALEIIGRMNEWDDDSVRTALKQAYVEVEGETLKNLGDRDLLILAALIKNQDTNRAYSEVSASSNLLLRGVSKSTFF”, the “soluble on expression in E. coli” value was “not soluble”.

Turning to “MKLGVIAAMDLELQKLLEYFPPQRKIQLAKNTFYIYEQKTSQVIMVCAGQGKTNATLYSQILIDSFQIEQLINIGICGCLNEKLQLFEMVLGEEYCHYDIRERQSINKFPYQLYYKGDKGMLAELQHLDEKIKCVRFGTGEGFVCDTTEKRNLIEQFSIDCVDMESAAIAQCCFLNDCAFVSIRIICDRADANAVKVTEDTQTQAMEKVFELVCAYIN”, the “soluble on expression in E. coli” value is “not soluble”.

As for “MSLGADRSAPMTARIDQLLLERLKSAGVEPAPAADDGEFLRRAYLDLSGTIPPVAITRDYLADSSPAKRRQLIERLLASPAFASHLASTWREIILKPTDDFQQLQNQFALQAWLREQFSENARYDRIVEQFITASSEQDGPVYFYDALDLKPEQLAAETSRIFLGLHIQCAECHDHPFDDWKQRDFWGYAAFFARVAKRDSAMGRISLVDQEMGEVKIPESEETVAPLYPGGSAPSDRFGGTRRQKLAVWMVARDNPYTARRAVNWAWAHLFGRGLVEPVDDLSPLNAPSHPALMEELTQYFIDSGYDLRQLLRTLAMTDAYARSSQNVDGQRPELFANMAIKSLSPEQLYDAILRLGLIRETVGDLSSQAPQPFDRSQQRLQFVARMRTVSLDRTDFETGAPQALALMNGPPVSLATAPETSGFLKSLEAPFFSDEQRVELIALAAYSRQPTAEERQRFSEYLATASPNEKKQALGDLLWAVAASAEFMLNEGHHHHHH”, the “soluble on expression in E. coli” value is “not soluble”.

Consider “MSLRILGRASSINVRKVLWACAEFEIAFEREDWGSGFKATDSTEFLALNPNAMIPVIQDGDFTLWESNSIIRYLASRYGATAFYPGEAQARARIDQWIDWQASDLNRSWSYAFMSLVRHSPAHQDPQALAAGCAEWSRYMRILDRQLASTGAYVAGSQFTLADIPIGLSVNRWFETPFEHPHLPAVRDYYERLSERPAYHLHGRNGTEGHHHHHH”, for which the “soluble on expression in E. coli” value is reported as “soluble”.

“KRKERLSARLGDILSQLYLSSATLKRFEQDGRPAEDLALVHWGLQDSLKQAEIAIDEFLANFPNKVIGRTLRVLIMPFGRVRKAPSDKLDSKVARILQTPSATRSRIGRGQYLEPTEHNPAGKIELALSVILQAEPVFDKVCKAQGKRRPFLRLDMIAQEGLEQGVITQEEAELLREAEQHRLDTINVDDFEPELLAAKPLYPQMDSVA”: the “soluble on expression in E. coli” value was “not soluble”.

With “MATESALIKVHVKSPSNKYDVEIAADASVSELKDKVLVFVPTANKEQVCIIYTGKILKDEETLTQHKIADGHTVHLVIRNQARPTPAPAAATPTASSAPSSNPTPSSQPNPTNNPFAAMGGMGSPADILNNPDAMRSVMDNPITQQLLGNPEFMRTIIQSNPQFQALIERNPEVGHILNDPNVMRQTMEMIRNPNMFQEMMRNHDQAIRNLQGIPGGEAALERLYNDVQEPLLNSATNSLSGNPFASLRGDQSSEPRVDRAGQENNEALPNPWASNANQATNNQSNNRSADFNSLLDSPGISSLMEQMMSNPSMQASMFSPEVINSIRQNMSNNPGLIDSIVGQIPSARDNPQISEGIRRSFPQMLNMMSDPSVMEAMRNPRVSEAFRQIQEGFSTLRREAPQLLNLFQAGAMGGGAFGSDANASSAGANSANGLADLFNSMNMGGGRPSSTAAPVNPEQTYASQLEQLQSMGFSDRARNVAALTATFGDLNAAVERLLNSP”, the “soluble on expression in E. coli” value is on record as “not soluble”.

Turning to “MQRETVWLVEDEQGIADTLVYMLQQEGFAVEVFERGLPVLDKARKQVPDVMILDVGLPDISGFELCRQLLALHPALPVLFLTARSEEVDRLLGLEIGADDYVAKPFSPREVCARVRTLLRRVKKFSTPSPVIRIGHFELNEPAAQISWFDTPLALTRYEFLLLKTLLKSPGRVWSRQQLMDSVWEDAQDTYDRTVDTHIKTLRAKLRAINPDLSPINTHRGMGYSLRGL”, the “soluble on expression in E. coli” value is “soluble”.

“MSGEKIDITPKKDGGVLKLIKKEGQGVVKPTTGTTVKVHYVGTLENGTKFDSSRDRGDQFSFNLGRGNVIKGWDLGVATMTKGEVAEFTIRSDYGYGDAGSPPKIPGGATLIFEVELFEWSAEDISPDRDGTILRTIIVEGSKNSFPNDTSKVLAHCVGTYQGTEFYNREVNFHIGEGSEEGLPEGVERALRRFQLGEKSKIEIRGHKYTYGNSPPAGSNIPVNATLEFTIFLKEFEKVPATWEMTAEEKLDAAKQAKDRGTMYLQKGNLKLAYNKYKRAEEVLEYEKSTDPEKMAERETILNGAYLNLSLVCSKQNEQLECIKWCDKVLETKPGNVKALYRKATALLTMNEVRDAMKLFEKIVEVEPENKAAAQQIIVCRNTIREQNERDKKRFKNLFAKISTEEDKPTNTVEDEDEIVASTSGSSTSNA”: the “soluble on expression in E. coli” value is “soluble”.

As to “MKIIVQKFGGTSVKDDKGRKLALGHIKEAISEGYKVVVVVSAMGRKGDPYATDSLLGLLYGDQSAISPREQDLLLSCGETISSVVFTSMLLDNGVKAAALTGAQAGFLTNDQHTNAKIIEMKPERLFSVLANHDAVVVAGFQGATEKGDTTTIGRGGSDTSAAALGAAVDAEYIDIFTDVEGVMTADPRVVENAKPLPVVTYTEICNLAYQGAKVISPRAVEIAMQAKVPIRVRSTYSNDKGTLVTSHHSSKVGSDVFERLITGIAHVKDVTQFKVPAKIGQYNVQTEVFKAMANAGISVDFFNITPSEIVYTVAGNKTETAQRILMDMGYDPMVTRNCAKVSAVGAGIMGVPGVTSKIVSALSEKEIPILQSADSHTTIWVLVHEADMVPAVNALHEEFELSK”, the “soluble on expression in E. coli” value is “soluble”.

Regarding “MGSDKIHHHHHHMRISLSTGTLFTFPLGKVMRIAREAGFDGVELIINQDFQKVNCRKLIEELAEILPINSIHAPFMPLDGWGGPIDSLERCVELAAGAGIPLVNFHPPSWMGFEIGFWRWLYRVMDFQKEVGRETVIVTLENMPWVGTRFRVNPHILSNTEKLIEFIQERNLYMTFDTTHMGSGKANFINDFYHCYNSGRIRNIHFSDYGHGREHLIPGHGILPLTRFLNHLRSTDYADTLTLELSPEEFPRDERIIVESLREILQYLRRETSPA”, the “soluble on expression in E. coli” value is listed as “not soluble”.

With “MSLSRIIMLIPTGTSVGLTSVSLGVIRAMERKGVRLSVFKPIAQPRTGGDAPDQTTTIVRANSSTTTAAEPLKMSYVEGLLSSNQKDVLMEEIVANYHANTKDAEVVLVEGLVPTRKHQFAQSLNYEIAKTLNAEIVFVMSQGTDTPEQLKERIELTRNSFGGAKNTNITGVIVNKLNAPVDEQGRTRPDLSEIFDDSSKAKVNNVDPAKLQESSPLPVLGAVPWSFDLIATRAIDMARHLNATIINEGDINTRRVKSVTFCARSIPHMLEHFRAGSLLVTSADRPDVLVAACLAAMNGVEIGALLLTGGYEMDARISKLCERAFATGLPVFMVNTNTWQTSLSLQSFNLEVPVDDHERIEKVQEYVANYINADWIDSLTATSERSRRLSPPAFRYQLTELARKAGKRIVLPEGDEPRTVKAAAICAERGIATCVLLGNPAEINRVAASQGVELGAGIEIVDPEVVRESYVGRLVELRKNKGMTETVAREQLEDNVVLGTLMLEQDEVDGLVSGAVHTTANTIRPPLQLIKTAPGSSLVSSVFFMLLPEQVYVYGDCAINPDPTAEQLAEIAIQSADSAAAFGIEPRVAMLSYSTGTSGAGSDVEKVREATRLAQEKRPDLMIDGPLQYDAAVMADVAKSKAPNSPVAGRATVFIFPDLNTGNTTYKAVQRSADLISIGPMLQGMRKPVNDLSRGALVDDIVYTIALTAIQSAQQQEGHHHHHH”, the “soluble on expression in E. coli” value is on record as “not soluble”.

For the sequence “MGSDKIHHHHHHMPTPADDLVVIGKIVSVYGIRGEVKVYSFTDPLDNLLDYRRWTLRRDGEIRQAELVRGRLHGKVLAAKLKGLDDREEARTFTGYEICIPRSELPSLEEGEYYWHQLEGLKVIDQGRQLLGVIDHLLETGANDVMVVKPCAGSLDDRERLLPYTGQCVLSIDLAAGEMRVDWDADF”, the “soluble on expression in E. coli” value was “soluble”.

Regarding “MGSSHHHHHHSSGLVPRGSHELGGRVSGSLAWRVARGETGLERKEILFIPSENEKISKQFHLRYDIVRDRYIRVSDNNTNISGWENGVWKMESIFRKVEKDWNMVYLARKEGSSFAYISWKFECGSAGLKVDTVSIRTSSQSFESGSVRWKLRSETAQVNLLGDKNLRSYNDFSGATEVTLEAELSRGDGDVAWQHTQLFRQSLNDSGENGLEIIITFNDL”, the “soluble on expression in E. coli” value is recorded as “soluble”.

As to “MTKKKLLKALAVAAIATSLVACSDSSSNDKTLTTAVSSGSSVATTTVAAPADNTNVTANASYIIGYGMGSSIATDKNIKTFNLNNDKVMAGFEDAINAKKPAIPLEDIANNMNTLRDKMQQQMNQKAVTSFLSVQDGIYNSDLTPKSDIKNPDVVVYEFFDYQCMYCSKLAPEIEKIMKDNSDVQVVFAEFPIFGQKLPASEYAAEVSTAIYKLYGADAYVKYHNGIFATGEDEGSLKNATVDNVAKQAGADMTKVNKAIQDDKIADHLKDMLKMGFGQLGIQGTPFLVIAPAKNATVANTTIIGGYTTADGIQAAINKAKSTATTTSTSNNGQTDTKQAQNDIATVTAEAQATSGSTEQLAQPR”, the “soluble on expression in E. coli” value is “not soluble”.

Consider “MRERLKGVIKKGVKVFFTDESGIHHDPSKVRRLGLYNVPVDYPSRKLNVLASIPLFDGVPCFMSTYSNVNFKIFAEFLRLFRNSGPIVLILDSAKFHKNAYVFSVASQLGITLLFLPPYSPDLNPIEFGGTWFVG”, for which the “soluble on expression in E. coli” value was “soluble”.

Turning to “MNRRDFIKAASGGALLLGAAPSVSHAAAENRPPIPGSLGMLYDSTLCVGCQACVTKCQDINFPARNPEGEQTWSNNDKLSPYTNNIIQVWRSGTGVNKDQEENGYAYIKKQCMHCVDPNCVSVCPVSALKKDPKTGIVHYDKDVCTGCRYCMVACPYNVPKYDYNNPFGALHKCELCNQKGVERLDKGGLPGCVEVCPAGAVIFGTREELMAEAKKRLALKPGSEYHYPRQTLKTDDTYLHTVPKYYPHLYGEKEGGGTQVLVLTGVPYEDLDLPKLDDLSTGARSEHVQHTLYKGMILPLAALAGLTVLVRRNSKNDHHDGGDDHES”, the “soluble on expression in E. coli” value was “not soluble”.

As to “MTVTDLSKKPLLLLDHVTMQFGGLVAVDDFTNEIREGELVGLIGPNGAGKTTVFNVITGIYTPTKGRIVFNDIDITGLRPYQITHLGIARTFQNIRLFSDMTVLENVLVAQHHVLSNPDADRILVKHGKPRKGHGRFWFWRAVTKIGYLKKEKEMVERAKDLIKRVGLEKVMYEKASSLPYGEQRKLEIARALATEPKLILLDEPAAGMNPKETEDLMEFIKQIRKDFNLTVLLIEHDMKVVMGICERIIVMDYGRIIAEGTPKEIQNDPRVIEAYLGREWESV”, the “soluble on expression in E. coli” value is given as “soluble”.

Regarding “MIKHLVAPLVFTSLILTGCQSPQGKFTPEQVAAMQSYGFTESAGDWSLGLSDAILFAKNDYKLLPESQQQIQTMAAKLASTGLTHARMDGHTDNYGEDSYNEGLSLKRANVVADAWAMGGQIPRSNLTTQGLGKKYPIASNKTAQGRAENRRVAVVITTP”, the “soluble on expression in E. coli” value is “not soluble”.
